Here are results for six molecules from patent US20250340631A1 (HARBOUR BIOMED SHANGHAI, published 2025).

Like-named read-outs stand apart in the source and are kept apart here.

The target in assay [1] is human CLDN18.2 (human). The assay can be described thus: cell-based or functional assay.
The target in assay [2] is T1, human CD3 on Jurkat cells (human, UniProt P07766 23-207).
T1 construct: whole, on cells; on cells it stands in the whole CD3/TCR complex; also called CD3-expressing cells
In words: FACS on Jurkat cells (CD3).
Description: (§1) Antibodies were assayed for binding affinity by FACS. Test cells include HEK293/hCLDN18.2, HEK293/hCLDN18.1, NUGC4_D8 and Jurkat cells. […] The cell density was adjusted to 10⁶ cells/mL, and 50 μL of the cell suspension was added to each well of a 96-well plate. Antibodies were diluted to different concentrations with FACS buffer, and 50 μL of the antibody dilution was added to each well of the 96-well plate. After 2 h of incubation at 4° C., the plate was washed twice with FACS buffer. […] After 1 h of incubation at 4° C., the plate was washed twice with FACS buffer. The cells were resuspended in fixative solution, and then the fluorescence of the cells was monitored using an FACS instrument (ACEA NovoCyte).

The target of assay [3] is CLDN18.2 of SNU620 cells (methionine to leucine at amino acid 149) (human, UniProt P56856-2 1-261). In words: cell-based or functional assay.
For assay [4], the target named is T2, human CLDN18.2 (human).
T2 construct: the HEK293 line was made with a GenScript plasmid; also called hCLDN18.2
The assay can be described thus: FACS on HEK293/hCLDN18.2 cells.

Assay [5] has as its target T2, human CLDN18.2. In words: FACS on NUGC4_D8 cells.
Assay [6] concerns the target T1, human CD3 on Jurkat cells. The assay can be described thus: FACS on Jurkat cells (CD3). This is another data set of the same source.
Description: as §1
The target in assay [7] is T1, human CD3 on Jurkat cells. The assay can be described thus: FACS on Jurkat cells (CD3). This is another data set of the same source.
Description: as §1

CLDN18.2 of SNU620 cells (methionine to leucine at amino acid 149), sequence (P56856 other isoform, or with tags, fused parts or gaps limits assumed): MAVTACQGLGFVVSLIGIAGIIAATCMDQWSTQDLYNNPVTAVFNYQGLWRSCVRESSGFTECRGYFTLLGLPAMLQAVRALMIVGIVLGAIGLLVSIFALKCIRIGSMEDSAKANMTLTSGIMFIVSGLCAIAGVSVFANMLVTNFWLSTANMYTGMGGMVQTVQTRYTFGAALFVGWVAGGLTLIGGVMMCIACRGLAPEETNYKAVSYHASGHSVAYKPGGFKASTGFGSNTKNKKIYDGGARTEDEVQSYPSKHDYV
T1 sequence (P07766 23-207): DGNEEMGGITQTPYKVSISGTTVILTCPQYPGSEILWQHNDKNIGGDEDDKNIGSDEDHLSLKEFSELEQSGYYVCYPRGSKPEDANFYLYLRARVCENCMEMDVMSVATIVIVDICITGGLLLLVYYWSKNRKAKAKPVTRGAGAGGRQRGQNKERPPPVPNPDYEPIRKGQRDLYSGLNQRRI

B1: PR005076 (bispecific antibody, human IgG1, lambda, L234A L235A)
chain: EVQLVESGGGLVQPGGSLRLSCAASGFTFSSYWMYWVRQVPGKGLVWVSHINSDGSTTQYADSVKGRFTISRDNAKNMLYLQMNSLRAEDTAVYYCARDFPVLGGSHFDFQHWGQGTLVTVSSGGGGSGGGGSGGGGSEVQLVESGGGLVQPGGSLRLSCAASGFTFSSYWMYWVRQVPGKGLVWVSHINSDGSTTQYADSVKGRFTISRDNAKNMLYLQMNSLRAEDTAVYYCARDFPVLGGSHFDFQHWGQGTLVTVSSASEPKSSDKTHTCPPCPAPEAAGGPSVFLFPPKPKDTLMISRTPEVTCVVVDVSHEDPEVKFNWYVDGVEVHNAKTKPREEQYNSTYRVVSVLTVLHQDWLNGKEYKCKVSNKALPAPIEKTISKAKGQPREPQVCTLPPSREEMTKNQVSLSCAVKGFYPSDIAVEWESNGQPENNYKTTPPVLDSDGSFFLVSKLTVDKSRWQQGNVFSCSVMHEALHNHYTQKSLSLSPGK
heavy: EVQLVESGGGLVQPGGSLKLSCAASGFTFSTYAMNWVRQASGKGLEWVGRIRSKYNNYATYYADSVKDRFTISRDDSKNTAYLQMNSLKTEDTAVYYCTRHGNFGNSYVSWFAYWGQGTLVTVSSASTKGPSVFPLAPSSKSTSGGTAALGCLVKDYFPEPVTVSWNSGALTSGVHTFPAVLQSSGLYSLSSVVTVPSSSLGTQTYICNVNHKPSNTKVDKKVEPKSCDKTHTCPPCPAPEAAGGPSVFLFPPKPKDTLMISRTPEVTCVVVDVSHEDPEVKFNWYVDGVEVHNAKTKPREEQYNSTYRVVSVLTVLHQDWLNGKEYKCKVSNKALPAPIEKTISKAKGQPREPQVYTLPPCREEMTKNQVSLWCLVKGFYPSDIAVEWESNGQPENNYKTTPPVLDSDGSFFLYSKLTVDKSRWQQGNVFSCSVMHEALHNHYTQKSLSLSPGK
light: QAVVTQEPSLTVSPGGTVTLTCRSSTGAVTTSNYANWVQQKPGQAPRGLIGGTNKRAPWTPARFSGSLLGDKAALTLLGAQPEDEAEYFCALWYSNLWVFGGGTKLTVLGQPKAAPSVTLFPPSSEELQANKATLVCLISDFYPGAVTVAWKADSSPVKAGVETTTPSKQSNNKYAASSYLSLTPEQWKSHRSYSCQVTHEGSTVEKTVAPTECS
notes: structure 1; CD3 Fab from PR003886, CLDN18.2 VH from PR004536; LALA
For the molecule B1, in the assay with human CLDN18.2 [1], the “TDCC, Titer EC50 (pM), NUGC4_D8” value is 102 pM. In addition, the binding result in assay [2] is reported as “binds”.

B2: PR004603 (bispecific antibody, human IgG1, lambda, L234A L235A)
chain: EVQLVESGGGLVQPGGSLRLSCAASGFTFSSYWMHWVRQAPGKGLEWVSYINNDGSSTRYADSVKGRFTISRDNAKNTLYLQMNSLRAEDTAVYYCTEAPPYGNYERDYWGQGTLVTVSSGGGGSGGGGSGGGGSEVQLVESGGGLVQPGGSLRLSCAASGFTFSSYWMHWVRQAPGKGLEWVSYINNDGSSTRYADSVKGRFTISRDNAKNTLYLQMNSLRAEDTAVYYCTEAPPYGNYERDYWGQGTLVTVSSASEPKSSDKTHTCPPCPAPEAAGGPSVFLFPPKPKDTLMISRTPEVTCVVVDVSHEDPEVKFNWYVDGVEVHNAKTKPREEQYNSTYRVVSVLTVLHQDWLNGKEYKCKVSNKALPAPIEKTISKAKGQPREPQVCTLPPSREEMTKNQVSLSCAVKGFYPSDIAVEWESNGQPENNYKTTPPVLDSDGSFFLVSKLTVDKSRWQQGNVFSCSVMHEALHNHYTQKSLSLSPGK
heavy: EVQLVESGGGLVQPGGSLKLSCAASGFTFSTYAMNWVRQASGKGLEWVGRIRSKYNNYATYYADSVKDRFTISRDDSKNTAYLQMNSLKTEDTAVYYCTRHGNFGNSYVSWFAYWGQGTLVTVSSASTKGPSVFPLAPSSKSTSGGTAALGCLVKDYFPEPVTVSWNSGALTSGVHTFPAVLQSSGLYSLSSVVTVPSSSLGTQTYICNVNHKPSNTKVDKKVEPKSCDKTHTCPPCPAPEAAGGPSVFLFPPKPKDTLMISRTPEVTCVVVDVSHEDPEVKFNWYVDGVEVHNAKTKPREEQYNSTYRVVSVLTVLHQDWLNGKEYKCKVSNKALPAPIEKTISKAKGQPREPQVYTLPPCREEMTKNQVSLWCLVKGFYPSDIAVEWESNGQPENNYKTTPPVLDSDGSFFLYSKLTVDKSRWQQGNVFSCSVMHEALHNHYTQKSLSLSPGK
light: QAVVTQEPSLTVSPGGTVTLTCRSSTGAVTTSNYANWVQQKPGQAPRGLIGGTNKRAPWTPARFSGSLLGDKAALTLLGAQPEDEAEYFCALWYSNLWVFGGGTKLTVLGQPKAAPSVTLFPPSSEELQANKATLVCLISDFYPGAVTVAWKADSSPVKAGVETTTPSKQSNNKYAASSYLSLTPEQWKSHRSYSCQVTHEGSTVEKTVAPTECS
notes: structure 1 (2+1 Fab-Fc-Dual VH); CD3 Fab from PR003886, CLDN18.2 VH from PR004227; IgG1 knob/hole, LALA
Take B2: in the assay with human CLDN18.2 [1], the “TDCC, Titer EC50 (pM), NUGC4_D8” value turned out to be 251 pM. Moreover, the “TDCC, Titer EC50 (pM), SNU620” value in assay [3] was determined as 17.8 pM. Also, the binding result in assay [2] is “binds”. In the assay with human CLDN18.2 [4], the EC50 was determined as 33.1 nM.

B3: PR005072 (bispecific antibody, human IgG1, lambda, L234A L235A)
chain: EVQLVESGGGLVQPGGSLRLSCAASGFTFSSYWMHWVRQVPGKGLVWVSRINSDGSRTIYADSVKGRFTISRDNAKNTLYLQMNSLRAEDTAVYYCARGEDHDILTGYPIRGQGTTVTVSSGGGGSGGGGSGGGGSEVQLVESGGGLVQPGGSLRLSCAASGFTFSSYWMHWVRQVPGKGLVWVSRINSDGSRTIYADSVKGRFTISRDNAKNTLYLQMNSLRAEDTAVYYCARGEDHDILTGYPIRGQGTTVTVSSASEPKSSDKTHTCPPCPAPEAAGGPSVFLFPPKPKDTLMISRTPEVTCVVVDVSHEDPEVKFNWYVDGVEVHNAKTKPREEQYNSTYRVVSVLTVLHQDWLNGKEYKCKVSNKALPAPIEKTISKAKGQPREPQVCTLPPSREEMTKNQVSLSCAVKGFYPSDIAVEWESNGQPENNYKTTPPVLDSDGSFFLVSKLTVDKSRWQQGNVFSCSVMHEALHNHYTQKSLSLSPGK
heavy: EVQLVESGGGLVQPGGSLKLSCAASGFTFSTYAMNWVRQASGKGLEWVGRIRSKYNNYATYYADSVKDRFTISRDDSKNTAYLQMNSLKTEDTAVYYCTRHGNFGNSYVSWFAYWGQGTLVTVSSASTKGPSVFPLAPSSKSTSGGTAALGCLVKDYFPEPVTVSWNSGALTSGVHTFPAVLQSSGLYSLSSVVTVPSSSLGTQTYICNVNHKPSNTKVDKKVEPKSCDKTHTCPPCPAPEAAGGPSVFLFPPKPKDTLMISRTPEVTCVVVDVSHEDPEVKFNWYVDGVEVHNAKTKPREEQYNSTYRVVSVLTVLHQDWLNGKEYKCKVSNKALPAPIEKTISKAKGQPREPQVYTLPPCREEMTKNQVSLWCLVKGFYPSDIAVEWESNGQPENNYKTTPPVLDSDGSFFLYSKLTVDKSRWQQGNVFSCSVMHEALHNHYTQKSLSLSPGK
light: QAVVTQEPSLTVSPGGTVTLTCRSSTGAVTTSNYANWVQQKPGQAPRGLIGGTNKRAPWTPARFSGSLLGDKAALTLLGAQPEDEAEYFCALWYSNLWVFGGGTKLTVLGQPKAAPSVTLFPPSSEELQANKATLVCLISDFYPGAVTVAWKADSSPVKAGVETTTPSKQSNNKYAASSYLSLTPEQWKSHRSYSCQVTHEGSTVEKTVAPTECS
notes: structure 1; CD3 Fab from PR003886, CLDN18.2 VH from PR004533; LALA
Regarding B3, the “TDCC, Titer EC50 (pM), NUGC4_D8” value with human CLDN18.2 [1] is 142 pM. The “TDCC, Titer EC50 (pM), SNU620” value in assay [3] was 34.5 pM. The binding result in assay [2] was “binds”. Further, the figures for the EC50 in the assay with human CLDN18.2 [4] and in the assay with human CLDN18.2 [5] were 15.7 nM and 90.7 nM, respectively.

B4: PR005422 (bispecific antibody, human IgG1, lambda, L234A L235A)
chain: EVQLVESGGGLVQPGGSLRLSCAASGFTFSSYWMYWVRQVPGKGLVWVSHINPLGSTTQYADSVKGRFTISRDNAKNMLYLQMNSLRAEDTAVYYCARDFPVLGGSHFDFQHWGQGTLVTVSSGGGGSGGGGSGGGGSEVQLVESGGGLVQPGGSLRLSCAASGFTFSSYWMYWVRQVPGKGLVWVSHINPLGSTTQYADSVKGRFTISRDNAKNMLYLQMNSLRAEDTAVYYCARDFPVLGGSHFDFQHWGQGTLVTVSSASEPKSSDKTHTCPPCPAPEAAGGPSVFLFPPKPKDTLMISRTPEVTCVVVDVSHEDPEVKFNWYVDGVEVHNAKTKPREEQYNSTYRVVSVLTVLHQDWLNGKEYKCKVSNKALPAPIEKTISKAKGQPREPQVCTLPPSREEMTKNQVSLSCAVKGFYPSDIAVEWESNGQPENNYKTTPPVLDSDGSFFLVSKLTVDKSRWQQGNVFSCSVMHEALHNHYTQKSLSLSPGK
heavy: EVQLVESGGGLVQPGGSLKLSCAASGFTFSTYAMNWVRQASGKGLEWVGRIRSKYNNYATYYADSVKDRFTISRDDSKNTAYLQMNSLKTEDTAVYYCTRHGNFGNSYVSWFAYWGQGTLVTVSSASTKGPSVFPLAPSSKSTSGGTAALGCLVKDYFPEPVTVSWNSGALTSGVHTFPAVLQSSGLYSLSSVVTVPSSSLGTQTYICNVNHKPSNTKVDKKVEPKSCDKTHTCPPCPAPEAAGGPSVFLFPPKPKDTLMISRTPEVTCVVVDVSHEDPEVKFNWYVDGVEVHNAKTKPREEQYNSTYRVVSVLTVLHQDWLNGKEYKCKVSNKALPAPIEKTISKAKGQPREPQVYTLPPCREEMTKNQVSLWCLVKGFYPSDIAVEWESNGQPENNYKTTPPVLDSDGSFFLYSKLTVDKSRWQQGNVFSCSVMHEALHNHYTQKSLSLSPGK
light: QAVVTQEPSLTVSPGGTVTLTCRSSTGAVTTSNYANWVQQKPGQAPRGLIGGTNKRAPWTPARFSGSLLGDKAALTLLGAQPEDEAEYFCALWYSNLWVFGGGTKLTVLGQPKAAPSVTLFPPSSEELQANKATLVCLISDFYPGAVTVAWKADSSPVKAGVETTTPSKQSNNKYAASSYLSLTPEQWKSHRSYSCQVTHEGSTVEKTVAPTECS
notes: structure 1; CD3 Fab from PR003886, CLDN18.2 VH from PR007247; LALA
Consider B4, for which the “TDCC, Titer EC50 (pM), NUGC4_D8” value in the assay with human CLDN18.2 [1] worked out at 21.9 pM. Further, the “TDCC, Titer EC50 (pM), SNU620” value in assay [3] was 313 pM. In assay [6], the binding result is on record as “binds”.

B5: PR007079 (bispecific antibody, human IgG1, lambda)
chain: EVQLVESGGGLVQPGGSLRLSCAASGFTFSSYWMHWVRQVPGKGLVWVSRISSAGSRTIYADSVKGRFTISRDNAKNTLYLQMNSLRAEDTAVYYCARGEDHDILTGYPIRGQGTTVTVSSGGGGSGGGGSGGGGSEVQLVESGGGLVQPGGSLRLSCAASGFTFSSYWMHWVRQVPGKGLVWVSRISSAGSRTIYADSVKGRFTISRDNAKNTLYLQMNSLRAEDTAVYYCARGEDHDILTGYPIRGQGTTVTVSSASEPKSSDKTHTCPPCPAPEAAGAPSVFLFPPKPKDTLMISRTPEVTCVVVDVSHEDPEVKFNWYVDGVEVHNAKTKPREEQYNSTYRVVSVLTVLHQDWLNGKEYKCKVSNKALPAPIEKTISKAKGQPREPQVCTLPPSREEMTKNQVSLSCAVKGFYPSDIAVEWESNGQPENNYKTTPPVLDSDGSFFLVSKLTVDKSRWQQGNVFSCSVMHEALHNHYTQKSLSLSPGK
heavy: EVQLVESGGGLVQPGGSLKLSCAASGFTFSTYAMNWVRQASGKGLEWVGRIRSKYNNYATYYADSVKDRFTISRDDSKNTAYLQMNSLKTEDTAVYYCTRHGNFGNSYVSWFAYWGQGTLVTVSSASTKGPSVFPLAPSSKSTSGGTAALGCLVKDYFPEPVTVSWNSGALTSGVHTFPAVLQSSGLYSLSSVVTVPSSSLGTQTYICNVNHKPSNTKVDKKVEPKSCDKTHTCPPCPAPEAAGAPSVFLFPPKPKDTLMISRTPEVTCVVVDVSHEDPEVKFNWYVDGVEVHNAKTKPREEQYNSTYRVVSVLTVLHQDWLNGKEYKCKVSNKALPAPIEKTISKAKGQPREPQVYTLPPCREEMTKNQVSLWCLVKGFYPSDIAVEWESNGQPENNYKTTPPVLDSDGSFFLYSKLTVDKSRWQQGNVFSCSVMHEALHNHYTQKSLSLSPGK
light: QAVVTQEPSLTVSPGGTVTLTCRSSTGAVTTSNYANWVQQKPGQAPRGLIGGTNKRAPWTPARFSGSLLGDKAALTLLGAQPEDEAEYFCALWYSNLWVFGGGTKLTVLGQPKAAPSVTLFPPSSEELQANKATLVCLISDFYPGAVTVAWKADSSPVKAGVETTTPSKQSNNKYAASSYLSLTPEQWKSHRSYSCQVTHEGSTVEKTVAPTECS
notes: structure 1; CD3 Fab from PR003886, CLDN18.2 VH from PR007243; AAA
Turning to B5, in assay [7], the binding result is listed as “binds”. The molecule further returned an EC50 with human CLDN18.2 [5] of 73.2 nM.

B6: PR005398 (bispecific antibody, human IgG1, lambda, L234A L235A)
chain: EVQLVESGGGLVQPGGSLRLSCAASGFTFSSYWMHWVRQVPGKGLVWVSRINFDSSRTIYADSVKGRFTISRDNAKNTLYLQMNSLRAEDTAVYYCARGEDHDILTGYPIRGQGTTVTVSSGGGGSGGGGSGGGGSEVQLVESGGGLVQPGGSLRLSCAASGFTFSSYWMHWVRQVPGKGLVWVSRINFDSSRTIYADSVKGRFTISRDNAKNTLYLQMNSLRAEDTAVYYCARGEDHDILTGYPIRGQGTTVTVSSASEPKSSDKTHTCPPCPAPEAAGGPSVFLFPPKPKDTLMISRTPEVTCVVVDVSHEDPEVKFNWYVDGVEVHNAKTKPREEQYNSTYRVVSVLTVLHQDWLNGKEYKCKVSNKALPAPIEKTISKAKGQPREPQVCTLPPSREEMTKNQVSLSCAVKGFYPSDIAVEWESNGQPENNYKTTPPVLDSDGSFFLVSKLTVDKSRWQQGNVFSCSVMHEALHNHYTQKSLSLSPGK
heavy: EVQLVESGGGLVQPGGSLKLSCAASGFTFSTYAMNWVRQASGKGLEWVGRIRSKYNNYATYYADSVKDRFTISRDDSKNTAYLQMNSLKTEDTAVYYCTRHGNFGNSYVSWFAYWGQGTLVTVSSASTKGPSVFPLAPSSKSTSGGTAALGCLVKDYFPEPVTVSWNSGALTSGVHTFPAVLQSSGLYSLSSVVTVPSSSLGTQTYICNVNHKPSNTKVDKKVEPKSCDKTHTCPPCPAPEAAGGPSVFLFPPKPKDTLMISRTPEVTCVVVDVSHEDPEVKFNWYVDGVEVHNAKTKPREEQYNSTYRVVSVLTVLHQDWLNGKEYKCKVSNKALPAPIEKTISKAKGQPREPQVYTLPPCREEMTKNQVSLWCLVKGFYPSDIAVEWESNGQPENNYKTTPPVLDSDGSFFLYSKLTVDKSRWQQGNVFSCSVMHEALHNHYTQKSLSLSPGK
light: QAVVTQEPSLTVSPGGTVTLTCRSSTGAVTTSNYANWVQQKPGQAPRGLIGGTNKRAPWTPARFSGSLLGDKAALTLLGAQPEDEAEYFCALWYSNLWVFGGGTKLTVLGQPKAAPSVTLFPPSSEELQANKATLVCLISDFYPGAVTVAWKADSSPVKAGVETTTPSKQSNNKYAASSYLSLTPEQWKSHRSYSCQVTHEGSTVEKTVAPTECS
notes: structure 1; CD3 Fab from PR003886, CLDN18.2 VH from PR007242; LALA
As for B6, the “TDCC, Titer EC50 (pM), NUGC4_D8” value with human CLDN18.2 [1] was 9 pM. The “TDCC, Titer EC50 (pM), SNU620” value in assay [3] was determined as 18.3 pM. Also, the EC50 with human CLDN18.2 [4] was 20.4 nM; in the assay with human CLDN18.2 [5] it was 19.4 nM. Moreover, the binding result in assay [6] is reported as “binds”.

A word on the EC50: it is the concentration needed to bring the measured effect to its halfway point. A lower EC50 goes with greater potency.
